From patent US20210292422A1 (SURROZEN, published 2021) come the findings set out here.

The target of assay [1] is T1, LRP6E3E4 (UniProt O75581 631-1246).
T1 construct: domain: E3E4
T1 sequence (looked up): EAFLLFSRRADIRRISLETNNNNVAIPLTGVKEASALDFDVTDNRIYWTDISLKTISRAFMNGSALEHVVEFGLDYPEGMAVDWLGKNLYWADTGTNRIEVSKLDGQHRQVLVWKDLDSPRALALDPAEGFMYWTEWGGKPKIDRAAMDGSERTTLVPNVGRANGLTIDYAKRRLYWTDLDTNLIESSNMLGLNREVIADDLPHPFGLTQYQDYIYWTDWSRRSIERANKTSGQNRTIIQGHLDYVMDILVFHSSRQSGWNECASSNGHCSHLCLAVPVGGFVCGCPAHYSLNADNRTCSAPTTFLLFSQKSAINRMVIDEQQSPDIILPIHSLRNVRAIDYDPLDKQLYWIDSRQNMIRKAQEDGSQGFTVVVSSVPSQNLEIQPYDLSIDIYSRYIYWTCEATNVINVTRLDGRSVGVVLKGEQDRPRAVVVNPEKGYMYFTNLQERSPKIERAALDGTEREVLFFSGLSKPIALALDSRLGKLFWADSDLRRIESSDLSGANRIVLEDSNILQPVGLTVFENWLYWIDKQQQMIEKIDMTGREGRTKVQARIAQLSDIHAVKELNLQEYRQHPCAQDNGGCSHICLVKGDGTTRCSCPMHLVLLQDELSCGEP
In words: BLI (Octet), FIG. 12E.

Another assay concerns the target T2, FZD8 CRD (UniProt Q9H461 30-151).
T2 construct: domain: CRD
T2 sequence (looked up): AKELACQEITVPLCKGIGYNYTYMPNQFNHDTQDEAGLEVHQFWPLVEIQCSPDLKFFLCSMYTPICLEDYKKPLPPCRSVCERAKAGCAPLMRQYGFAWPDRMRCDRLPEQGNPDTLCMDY
In words: BLI (Octet), sequential: FZD8 CRD on sensor, tandem scFv, then LRP6 E3E4. (In general: BLI is a label-free optical method that tracks binding on a fibre tip over time.)

Assay [2] has as its target T1, LRP6E3E4. Described as above.
The target of another assay is Fzd7 CRD (UniProt O75084 44-163). In words: BLI (Octet Red 96), biotinylated Fzd7 CRD on SA biosensor. As to the method:
Following capture of biotinylated-Fzd7, the SA biosensor with captured biotinylated-Fzd7 was dipped into wells containing the relevant antibodies at 7 different concentrations in running buffer plus a well with only running buffer as a reference channel. KD was determined by global fitting.

B1: αGFP:5:L2:Fc (bispecific antibody)
chain: QVQLVESGGGLVQPGGSLRLSCAASGFTFSRYGMHWVRQAPGKGLEWVSGISSIGSNTYYADSVKGRFTISRDNSKNTLYLQMNSLRAEDTAVYYCARWYKTYIDVWGQGTLVTVSSGGGGSGGGGSGGGGSDIELTQPPSVSVAPGQTARISCSGDNLGKKYVYWYQQKPGQAPVLVIYGDDERPSGIPERFSGSNSGNTATLTISGTQAEDEADYYCASYDSSHILIVFGGGTKLTVLGSGSGEVQLVESGGGLVQPGGSLRLSCAASGFTFTSYYISWVRQAPGKGLEWVAEISPYSGSTYYADSVKGRFTISADTSKNTAYLQMNSLRAEDTAVYYCALRARPPIRLHPRGSVMDYWGQGTLVTVSSGSAASGSSGGSSSGADIQMTQSPSSLSASVGDRVTITCRASQDVSTAVAWYQQKPGKAPKLLIYSASFLYSGVPSRFSGSGSGTDFTLTISSLQPEDFATYYCQQSYTTPPTFGQGTKVEIKGSGSGDKTHTCPPCPAPEAAGGPSVFLFPPKPKDTLMISRTPEVTCVVVDVSHEDPEVKFNWYVDGVEVHNAKTKPREEQYNSTYRVVSVLTVLHQDWLNGKEYKCKVSNKALGAPIEKTISKAKGQPREPQVYTLPPSREEMTKNQVSLTCLVKGFYPSDIAVEWESNGQPENNYKTTPPVLDSDGSFFLYSKLTVDKSRWQQGNVFSCSVMHEALHNHYTQKSLSLSPGK
notes: 0FZD:2LRP control
For B1, in the assay with LRP6E3E4 [1], the binding result is recorded as “binds”.

B2: L2:5:F3_His (bispecific antibody)
chain: EVQLVESGGGLVQPGGSLRLSCAASGFTFTSYYISWVRQAPGKGLEWVAEISPYSGSTYYADSVKGRFTISADTSKNTAYLQMNSLRAEDTAVYYCALRARPPIRLHPRGSVMDYWGQGTLVTVSSGSAASGSSGGSSSGADIQMTQSPSSLSASVGDRVTITCRASQDVSTAVAWYQQKPGKAPKLLIYSASFLYSGVPSRFSGSGSGTDFTLTISSLQPEDFATYYCQQSYTTPPTFGQGTKVEIKGSGSGEVQLVESGGGLVQPGGSLRLSCAASGFNISYSYIHWVRQAPGKGLEWVASIYSSSGSTSYADSVKGRFTISADTSKNTAYLQMNSLRAEDTAVYYCARGAIDYWGQGTLVTVSSGGGGSGGGGSGGGGSDIQMTQSPSSLSASVGDRVTITCRASQSVSSAVAWYQQKPGKAPKLLIYSASSLYSGVPSRFSGSRSGTDFTLTISSLQPEDFATYYCQQWYSSGHVLITFGQGTKVEIKGSGSGHHHHHH
notes: 1:1 tandem scFv
Turning to B2, the binding result with FZD8 CRD and with LRP6E3E4 [2] was “binds” throughout.

B3: 1291-3 (bispecific antibody, human IgG1, kappa, L234A L235A)
light: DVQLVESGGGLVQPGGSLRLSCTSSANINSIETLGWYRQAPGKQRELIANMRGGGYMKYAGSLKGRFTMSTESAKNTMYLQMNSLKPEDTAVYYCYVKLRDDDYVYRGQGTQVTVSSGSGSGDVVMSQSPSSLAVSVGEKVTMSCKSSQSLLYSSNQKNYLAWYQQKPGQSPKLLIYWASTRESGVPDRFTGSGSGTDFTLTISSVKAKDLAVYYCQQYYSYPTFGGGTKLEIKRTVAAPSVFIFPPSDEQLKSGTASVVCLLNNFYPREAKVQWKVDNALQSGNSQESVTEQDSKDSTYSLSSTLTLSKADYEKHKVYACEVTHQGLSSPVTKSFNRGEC
heavy: EVQLVESGGGLVKPGGSLKLSCAASGFTFSSYAMSWVRQTPEKRLEWVATISDGGSYTRYPDKLKGRFTISRDNAKNNLYLQMSHLKSEDTAMYYCARVGGRRDYFDYWGQGTTLTVSSASTKGPSVFPLAPSSKSTSGGTAALGCLVKDYFPEPVTVSWNSGALTSGVHTFPAVLQSSGLYSLSSVVTVPSSSLGTQTYICNVNHKPSNTKVDKKVEPKSCDKTHTCPPCPAPEAAGGPSVFLFPPKPKDTLMISRTPEVTCVVVDVSHEDPEVKFNWYVDGVEVHNAKTKPREEQYNSTYRVVSVLTVLHQDWLNGKEYKCKVSNKALGAPIEKTISKAKGQPREPQVYTLPPSREEMTKNQVSLTCLVKGFYPSDIAVEWESNGQPENNYKTTPPVLDSDGSFFLYSKLTVDKSRWQQGNVFSCSVMHEALHNHYTQKSLSLSPGK
For the molecule B3, the binding result in the assay with Fzd7 CRD is given as “no binding”.

B4: 1791-3 (bispecific antibody, human IgG1, kappa, L234A L235A)
light: DVQLVESGGGLVQPGGSLRLSCTSSANINSIETLGWYRQAPGKQRELIANMRGGGYMKYAGSLKGRFTMSTESAKNTMYLQMNSLKPEDTAVYYCYVKLRDDDYVYRGQGTQVTVSSGSGSGDIVMTQSPKSMSMSVGERVTLRCKASENVLNYVSWYQQKPEQSPKLLIYGASNRYTGVPDRFTGSGSATDFTLTISSVQAEDLADYHCGQSYRYPTFGAGTKLELKRTVAAPSVFIFPPSDEQLKSGTASVVCLLNNFYPREAKVQWKVDNALQSGNSQESVTEQDSKDSTYSLSSTLTLSKADYEKHKVYACEVTHQGLSSPVTKSFNRGEC
heavy: EVQPVESGGGLVQPKGSLKLSCAASGFTFNTYAMHWVRQAPGKGLEWVARIRSKSNNYAKNYDDSVKDRFTISRDDSQSMLYLQMNNLKTEDTAMYYCVRENYGGRFDYWGQGTTLTVSSASTKGPSVFPLAPSSKSTSGGTAALGCLVKDYFPEPVTVSWNSGALTSGVHTFPAVLQSSGLYSLSSVVTVPSSSLGTQTYICNVNHKPSNTKVDKKVEPKSCDKTHTCPPCPAPEAAGGPSVFLFPPKPKDTLMISRTPEVTCVVVDVSHEDPEVKFNWYVDGVEVHNAKTKPREEQYNSTYRVVSVLTVLHQDWLNGKEYKCKVSNKALGAPIEKTISKAKGQPREPQVYTLPPSREEMTKNQVSLTCLVKGFYPSDIAVEWESNGQPENNYKTTPPVLDSDGSFFLYSKLTVDKSRWQQGNVFSCSVMHEALHNHYTQKSLSLSPGK
B4: the binding result with Fzd7 CRD is “no binding”.

B5: F3:5:L2_His (bispecific antibody)
chain: EVQLVESGGGLVQPGGSLRLSCAASGFNISYSYIHWVRQAPGKGLEWVASIYSSSGSTSYADSVKGRFTISADTSKNTAYLQMNSLRAEDTAVYYCARGAIDYWGQGTLVTVSSGGGGSGGGGSGGGGSDIQMTQSPSSLSASVGDRVTITCRASQSVSSAVAWYQQKPGKAPKLLIYSASSLYSGVPSRFSGSRSGTDFTLTISSLQPEDFATYYCQQWYSSGHVLITFGQGTKVEIKGSGSGEVQLVESGGGLVQPGGSLRLSCAASGFTFTSYYISWVRQAPGKGLEWVAEISPYSGSTYYADSVKGRFTISADTSKNTAYLQMNSLRAEDTAVYYCALRARPPIRLHPRGSVMDYWGQGTLVTVSSGSAASGSSGGSSSGADIQMTQSPSSLSASVGDRVTITCRASQDVSTAVAWYQQKPGKAPKLLIYSASFLYSGVPSRFSGSGSGTDFTLTISSLQPEDFATYYCQQSYTTPPTFGQGTKVEIKGSGSGHHHHHH
notes: 1:1 tandem scFv
For B5, the binding result with FZD8 CRD and with LRP6E3E4 [2] was “binds” throughout.

B6: L2:5:αGFP:Fc (bispecific antibody)
chain: EVQLVESGGGLVQPGGSLRLSCAASGFTFTSYYISWVRQAPGKGLEWVAEISPYSGSTYYADSVKGRFTISADTSKNTAYLQMNSLRAEDTAVYYCALRARPPIRLHPRGSVMDYWGQGTLVTVSSGSAASGSSGGSSSGADIQMTQSPSSLSASVGDRVTITCRASQDVSTAVAWYQQKPGKAPKLLIYSASFLYSGVPSRFSGSGSGTDFTLTISSLQPEDFATYYCQQSYTTPPTFGQGTKVEIKGSGSGQVQLVESGGGLVQPGGSLRLSCAASGFTFSRYGMHWVRQAPGKGLEWVSGISSIGSNTYYADSVKGRFTISRDNSKNTLYLQMNSLRAEDTAVYYCARWYKTYIDVWGQGTLVTVSSGGGGSGGGGSGGGGSDIELTQPPSVSVAPGQTARISCSGDNLGKKYVYWYQQKPGQAPVLVIYGDDERPSGIPERFSGSNSGNTATLTISGTQAEDEADYYCASYDSSHILIVFGGGTKLTVLGSGSGDKTHTCPPCPAPEAAGGPSVFLFPPKPKDTLMISRTPEVTCVVVDVSHEDPEVKFNWYVDGVEVHNAKTKPREEQYNSTYRVVSVLTVLHQDWLNGKEYKCKVSNKALGAPIEKTISKAKGQPREPQVYTLPPSREEMTKNQVSLTCLVKGFYPSDIAVEWESNGQPENNYKTTPPVLDSDGSFFLYSKLTVDKSRWQQGNVFSCSVMHEALHNHYTQKSLSLSPGK
notes: 0FZD:2LRP control
On to B6, for which the binding result with LRP6E3E4 [1] is given as “binds”.
